# Experimental data reported in paper PMC10146092, “Highly Sensitive β-Lactoglobulin Fluorescent Aptamer Biosensors Based on Tungsten Disulfide Nanosheets and DNase I-Assisted Signal Amplification”.
# T1: beta-lactoglobulin (β-Lg) (Bos taurus (cow's milk)?, UniProt P02754 17-178)
# T1 sequence: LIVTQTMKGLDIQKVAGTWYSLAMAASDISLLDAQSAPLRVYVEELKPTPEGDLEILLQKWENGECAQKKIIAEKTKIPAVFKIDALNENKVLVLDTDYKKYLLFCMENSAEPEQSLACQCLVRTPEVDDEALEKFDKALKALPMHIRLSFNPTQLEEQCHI
# B1: β-Lg aptamer (ssDNA)
# DNA: CGACGATCGGACCGCAGTACCCACAGCCCCAACATCATGCCCATCCGTGTGTG
# B2: negative control DNA sequence (ssDNA)
# DNA: CTAAGTCTGAAACATTACAGCTTGCTACACGAGAAGAGCCGCACGAGAACCCT
# Columns and labels:
# [1] = biological target: ovalbumin (UniProt P01012 2-386); assay: fluorescence recovery on WS2 nanosheets; 10 ug/mL protein; no significant recovery; 200 nM FAM-aptamer, 750 ug/mL WS2 (10 min, room temperature), then β-Lg with 0.04 U/uL DNase I, 40 min at 37 °C; ex 490/em 518 nm; buffer, salt and pH not given in the material; details: protein: commercial; label: 5'-FAM
# Chain of ovalbumin (P01012 2-386): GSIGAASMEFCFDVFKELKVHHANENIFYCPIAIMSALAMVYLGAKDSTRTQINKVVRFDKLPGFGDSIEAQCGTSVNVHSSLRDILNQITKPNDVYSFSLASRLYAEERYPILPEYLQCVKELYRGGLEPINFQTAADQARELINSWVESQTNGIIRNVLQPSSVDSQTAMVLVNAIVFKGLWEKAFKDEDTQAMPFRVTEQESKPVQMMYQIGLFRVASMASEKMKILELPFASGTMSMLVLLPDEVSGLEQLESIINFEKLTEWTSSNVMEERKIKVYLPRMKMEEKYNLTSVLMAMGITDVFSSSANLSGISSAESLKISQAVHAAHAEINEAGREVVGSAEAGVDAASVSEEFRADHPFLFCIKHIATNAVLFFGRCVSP
# [2] = biological target: T1, beta-lactoglobulin (β-Lg); assay: fluorescence recovery on WS2 nanosheets (FRET quenching); no DNase I; WS2 nanosheets; LOD 35 ng/mL; 200 nM FAM-aptamer, 750 ug/mL WS2 (10 min, room temperature), then β-Lg with 0.04 U/uL DNase I, 40 min at 37 °C; ex 490/em 518 nm; buffer, salt and pH not given in the material; details: protein: commercial; chain copies: 2; label: 5'-FAM
# [3] = biological target: T1, beta-lactoglobulin (β-Lg); assay: fluorescence recovery on WS2 nanosheets, DNase I amplified; DNase I; β-Lg 0.1-100 ug/mL; little fluorescence change, independent of β-Lg; 200 nM FAM-aptamer, 750 ug/mL WS2 (10 min, room temperature), then β-Lg with 0.04 U/uL DNase I, 40 min at 37 °C; ex 490/em 518 nm; buffer, salt and pH not given in the material; details: protein: commercial; chain copies: 2; label: 5'-FAM
binder,measurement,setting,value
B1,binding result,[1],no binding
same,binding result,[2],binds
B2,binding result,[3],no binding
